“Also recorded” adds a separate entry of the source.

The test system of one test is mouse. Briefly: mouse model, inhibitor delivered locally by eye drops, IOP. Format: in vivo. The source says: (§1) These protocols employ two different antibodies: anti-human WNTSA antibody produced in rabbit purified immunoglobulin, buffered aqueous solution (Sigma-Aldrich SAB1411396), and an anti-human WNTSA monoclonal antibody produced in mouse clone 6F2, ascites fluid (Sigma-Aldrich SAB5300183), although other Wnt5a antibodies can be used, e.g. Hanaki et al., Mol Cancer Ther 11(2) February 2012; He et al. Oncogene. 2005, 24 (18): 3054-3058.
(§2) These protocols employ a t-butyloxycarbonyl-modified Wnt5a-derived hexapeptide (Box5) that functions as a potent antagonist of Wnt5a (Jenei, et la., PNAS USA, 106 (46), 19473-8), and 6,7-dihydro -10alpha-hydroxy radicicol, a potent WNT-5A expression inhibitor with relatively low toxicity and excellent stability (Shinonaga et al. Bioorg Med Chem. 2009 Jul. 1; 17(13):4622-35).
(§3) These protocols employed OMP18R5 (a humanized monoclonal antibody that binds FZD5), Abcam ab52565 (a monoclonal antibody that binds FZD2), and cirmtuzumab (a humanized IgG1 anti-ROR1 monoclonal antibody), though an anti-human FZD5, FZD2 siRNA and ROR1 polyclonal and monoclonal antibodies, are commercially available from multiple sources, e.g. ThermoFisher Scientific, Abcam, SigmaAldrich, etc.); see also U.S. Pat. No. 9,573,998 for antibodies against human FZD5.

In the next test the test system is rabbit. The test can be described thus: rabbit model, inhibitor delivered locally by eye drops, IOP. Format: in vivo.
Excerpt: as §1, §2, §3

Test [1] deals with human Schlemm's canal cells. Briefly: tube formation of human Schlemm's canal cells. Format: cell-based. The note with it: in vitro; vs scrambled siRNA, isotype control or vehicle control of ethanol (0.07%); *P<0.05. The source says: FIGS. 1A-G. (A-C) Real-time quantitative PCR data showing the expression levels of FZD5, ROR1 and FZD2 in human Schlemm's canal cells are regulated by sheer stress (A), Wnt5a intervention by small interference RNAs (siRNAs) (B), or Wnt5a stimulation (C). (D and E) Summarized data showing that tube formation of human Schlemm's canal cells was inhibited by FZD5 siRNA (D) or ROR1 siRNA (E), respectively. Scrambled siRNA was used as negative control. *P<0.05. (F and G) Representative images showing that tube formation of human Schlemm's canal cells are regulated by the intervention of FZD5 (F) or ROR1 (G) via siRNAs. *P<0.05. […]
In exemplary models vivo data were obtained using well-established mouse model of glaucoma with laser-induced occlusion of episcleral veins (Zhang L, et al. Establishment and Characterization of an Acute Model of Ocular Hypertension by Laser-Induced Occlusion of Episcleral Veins. Invest Ophthalmol Vis Sci. 2017 Aug. 1; 58(10):3879-3886). […] Central corneal thickness and RNFL were measured on Day 3 or Day 7 by in vivo OCT, respectively. […]

Test [2] has as its system human Schlemm's canal cells. Briefly: real-time quantitative PCR of expression levels in human Schlemm's canal cells. The class given is cell-based. From the text:
FIGS. 1A-G. (A-C) Real-time quantitative PCR data showing the expression levels of FZD5, ROR1 and FZD2 in human Schlemm's canal cells are regulated by sheer stress (A), Wnt5a intervention by small interference RNAs (siRNAs) (B), or Wnt5a stimulation (C). (D and E) Summarized data showing that tube formation of human Schlemm's canal cells was inhibited by FZD5 siRNA (D) or ROR1 siRNA (E), respectively. Scrambled siRNA was used as negative control. *P<0.05. (F and G) Representative images showing that tube formation of human Schlemm's canal cells are regulated by the intervention of FZD5 (F) or ROR1 (G) via siRNAs. *P<0.05.
(§4) FIGS. 2A-C. (A-C, top panels) Real-time quantitative PCR data showing the expression levels of PLCB1, PPP3R1 and NFATC3 in human Schlemm's canal cells are regulated by sheer stress (A), Wnt5a intervention via siRNAs (B), or Wnt5a stimulation (C). (A-C, lower panels) Representative images and summarized data of Fluo-4 staining showing intracellular calcium signal is regulated by sheer stress (A), Wnt5a intervention via siRNAs (B), or Wnt5a stimulation (C). Green: Fluo-4, blue: DAPI nuclear staining *P<0.05.
FIGS. 3A-B. Real-time quantitative PCR data showing the expression of CAMK2D in human Schlemm's canal cells is regulated by sheer stress (A), or wnt5a stimulation (B), respectively. *P<0.05.
In exemplary models vivo data were obtained using well-established mouse model of glaucoma with laser-induced occlusion of episcleral veins (Zhang L, et al. Establishment and Characterization of an Acute Model of Ocular Hypertension by Laser-Induced Occlusion of Episcleral Veins. Invest Ophthalmol Vis Sci. 2017 Aug. 1; 58(10):3879-3886). Intraocular hypertension is introduced in the right eyes (OD) of the mice with the left eyes (OS) as controls. […] Central corneal thickness and RNFL were measured on Day 3 or Day 7 by in vivo OCT, respectively. […]

Test [3] concerns human Schlemm's canal cells. The test can be described thus: Fluo-4 staining of intracellular calcium signal. The class given is cell-based.
Excerpt: as §4
In exemplary models vivo data were obtained using well-established mouse model of glaucoma with laser-induced occlusion of episcleral veins (Zhang L, et al. Establishment and Characterization of an Acute Model of Ocular Hypertension by Laser-Induced Occlusion of Episcleral Veins. Invest Ophthalmol Vis Sci. 2017 Aug. 1; 58(10):3879-3886). Intraocular hypertension is introduced in the right eyes (OD) of the mice with the left eyes (OS) as controls. In these examples, the inhibitors or their controls were delivered daily to the right eyes via local administration of subconjunctival injection, starting from Day 1 after the induction of intraocular hypertension in the right eyes of the mice. Left eyes were used as controls. Central corneal thickness and RNFL were measured on Day 3 or Day 7 by in vivo OCT, respectively. All in vitro data were collected from human Schlemm's cells in culture.
Background: Calcium flux is commonly read through the fluorescence of an indicator in the cells.

For 6,7-dihydro -10alpha-hydroxy radicicol, the “therapy for pathogenic IOP” value in the test on mouse and in the test with rabbit was “effective therapies” in each case.
In the case of `O=C(OC[C@H]1O[C@@H](OC(=O)c2cc(O)c(O)c(O)c2)[C@H](OC(=O)c2cc(O)c(O)c(O)c2)[C@@H](OC(=O)c2cc(O)c(O)c(O)c2)[C@@H]1OC(=O)c1cc(O)c(O)c(O)c1)c1cc(O)c(O)c(O)c1` [DB03208, Beta-1,2,3,4,6-Penta-O-Galloyl-D-Glucopyranose], the “tube formation of human Schlemm's canal cells” value in test [1] was “inhibited”.

B1: Wnt5a: Wnt5a used to stimulate human SC cells (protein, UniProt P41221 62-380, looked up)
Protein Wnt-5a: IIGAQPLCSQLAGLSQGQKKLCHLYQDHMQYIGEGAKTGIKECQYQFRHRRWNCSTVDNTSVFGRVMQIGSRETAFTYAVSAAGVVNAMSRACREGELSTCGCSRAARPKDLPRDWLWGGCGDNIDYGYRFAKEFVDARERERIHAKGSYESARILMNLHNNEAGRRTVYNLADVACKCHGVSGSCSLKTCWLQLADFRKVGDALKEKYDSAAAMRLNSRGKLVQVNSRFNSPTTQDLVYIDPSPDYCVRNESTGSLGTQGRLCNKTSEGMDGCELMCCGRGYDQFKTVQTERCHCKFHWCCYVKCKKCTEIVDQFVCK
As to B1, in test [2], the “expression levels of FZD5, ROR1 and FZD2” value is recorded as “regulated; also recorded: increased”; the “expression levels of PLCB1, PPP3R1 and NFATC3” value is recorded as “regulated”; the “expression of CAMK2D” value was “regulated”. Further, the intracellular calcium signal result in test [3] is “regulated”.

(Values after US20210363247A1, “Novel Treatments of Glaucoma” (The Regents of the University of California, priority 2019, published 2021).)
